The results in this text go back to article doi:10.1101/2024.06.04.597356.

The data set has as its target CspA (UniProt P0A9X9 1-70). Briefly: molecular beacon unfolding.

Chain of CspA (P0A9X9 whole entry): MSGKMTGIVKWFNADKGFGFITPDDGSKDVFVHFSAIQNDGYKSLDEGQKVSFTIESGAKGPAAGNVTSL

B1: 78-nt molecular beacon (structured_DNA)
DNA: AGGGTTCTTTGTGGTGTTTTTATCTGTGCTTCCCTATGCACCGCCGACGACAGTCGCTAACCTCTCGCTAAGAACCCT
For the molecule B1, the binding result is reported as “binds”.
